Laboratory results taken from patent US20120276102A1 (Pfizer, published 2012).
Substitutions are numbered along the chain they refer to.

T1: human IL-2Rβ (human, UniProt P14784 27-239)
T1 sequence (looked up): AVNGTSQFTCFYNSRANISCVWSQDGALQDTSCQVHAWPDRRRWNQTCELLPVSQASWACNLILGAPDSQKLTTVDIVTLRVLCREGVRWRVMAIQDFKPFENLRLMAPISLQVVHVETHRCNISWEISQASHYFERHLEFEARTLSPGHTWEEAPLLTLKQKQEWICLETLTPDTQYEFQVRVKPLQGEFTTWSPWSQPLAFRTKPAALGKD

T2: human gamma (γ) common chain expressed on CHO cells (human, UniProt P31785 23-369)
T2 construct: whole, on cells; Control protein; also called human IL-2R-γ common subunit; human γ-common
T2 sequence (looked up): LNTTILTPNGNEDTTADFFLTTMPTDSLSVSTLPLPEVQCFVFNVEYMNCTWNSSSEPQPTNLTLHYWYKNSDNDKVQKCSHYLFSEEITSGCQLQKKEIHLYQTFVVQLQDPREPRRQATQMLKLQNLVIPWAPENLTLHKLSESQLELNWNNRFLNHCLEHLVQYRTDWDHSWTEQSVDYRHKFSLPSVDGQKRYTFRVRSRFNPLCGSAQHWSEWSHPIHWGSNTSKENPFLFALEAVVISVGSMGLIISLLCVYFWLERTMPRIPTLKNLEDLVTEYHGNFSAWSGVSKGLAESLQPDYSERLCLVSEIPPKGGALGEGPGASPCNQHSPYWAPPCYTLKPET

B1: AbG (antibody, IgG1, V domains shown)
VH: QVQLQESGPGLVKPSETLSLTCAVSGYSISSGYYWGWIRQPPGKGLEWIGSISHTGNTYYNPPLKSRVTISVDTSKNQFSLKLSSVTAADTAVYYCARGGGISRPEYWGQGTLVTVSS
VL: SSELTQDPAVSVALGQTVRITCQGDSLRTYYASWYQQKPGQAPVLVIYGKHKRPSGIPDRFSGSSSGNTASLTITGAQAEDEADYYCVTRSVKGNPHVLFGGGTQLTVL
notes: As for AbA: IgG1/lambda, CDR3 graft, residue limits derived; also called VHP/VL18
B2: AbA (antibody, V domains shown)
VH: B1 VH
VL: B1 VL with T89A, K93V
notes: Human IgG1/lambda, transiently expressed; also called VHP/VL2
B3: AbB (antibody, IgG1, V domains shown)
VH: B1 VH
VL: B1 VL with T89S, S91A, K93V
notes: As for AbA: IgG1/lambda, CDR3 graft, residue limits derived; also called VHP/VL3
B4: AbC (antibody, IgG1, V domains shown)
VH: B1 VH
VL: B1 VL with V88S, T89S, V92R, K93H
notes: As for AbA: IgG1/lambda, CDR3 graft, residue limits derived; also called VHP/VL11
B5: AbJ (antibody, IgG1, V domains shown)
VH: B1 VH with G99F, G100M, I102F, S103G
VL: B1 VL with V88N, T89S, S91D, V92S, K93S
notes: As for AbA: IgG1/lambda, CDR3 graft, residue limits derived; also called VH3/VLP
B6: murine IL-21R-Fc (Fc fusion, not shown: a dimerising Fc or GST)
chain: not shown
B7: AbV (antibody, human IgG1, V domains shown)
VH: B1 VH with G99F, G100M, I102F, S103G
VL: B1 VL with T89A, K93V
B8: AbW (antibody, human IgG1, V domains shown)
VH: B1 VH with G99F, G100M, I102F, S103G
VL: B1 VL

target: T3, human IL-21R expressed on cells (human, UniProt Q9HBE5 20-538); assay: cell-based ELISA on CHO cells transiently expressing human IL-21R; HRP anti-human IgG, A450
T3 construct: also called human IL-21R-BaF3; human IL-21R-TF1
Procedure: (§1) FIG. 6(a-l) depicts the binding of 21 anti-IL-21R IgGs to CHO cells transiently expressing human IL-21R (FIGS. 6a-c), rat IL-21R (FIGS. 6d-f), cynomolgus monkey IL-21R (FIGS. 6g-i), and human gamma common chain (FIGS. 6j-1). CHO cells were transiently transfected with IL-21R or the control gamma common chain, and binding was detected with HRP-conjugated anti-human IgG in a cell-based ELISA.
(§2) A subset of binding proteins was tested for binding to rat, cynomolgus monkey, human IL-21R, or human IL-2R-γ common subunit expressed transiently on the surfaces of CHO-PA-Dukx cells. Cells were transfected 48 hr prior to the assay. On the day of the assay, cells were washed gently 5× in PBS containing 0.9 mM CaCl₂ and 0.45 mM MgCl₂ (PBS/CaMg) on an automated plate washer (Titertek, Huntsville, Ala.), and blocked for 1 hr at RT in PBS/CaMg/5% nonfat dry milk. Conditioned media from transiently expressed anti-IL-21R IgGs were serially diluted in blocking buffer and added to the cells in the blocked plates for 1 hr at RT. Cells were washed 5× with PBS/CaMg and then incubated with horseradish peroxidase-conjugated anti-human IgG for 1 hr at RT. Cells were then washed 10× in PBS/CaMg and all of the wash buffer was removed. Cells were incubated with 100 μl TMB until the color reaction reached saturation, stopped with 100 μl of 0.18 M H₂SO₄, and read at A450 on a Perkin Elmer ENVISION™ plate reader.

T3 sequence (Q9HBE5 20-538 limits assumed): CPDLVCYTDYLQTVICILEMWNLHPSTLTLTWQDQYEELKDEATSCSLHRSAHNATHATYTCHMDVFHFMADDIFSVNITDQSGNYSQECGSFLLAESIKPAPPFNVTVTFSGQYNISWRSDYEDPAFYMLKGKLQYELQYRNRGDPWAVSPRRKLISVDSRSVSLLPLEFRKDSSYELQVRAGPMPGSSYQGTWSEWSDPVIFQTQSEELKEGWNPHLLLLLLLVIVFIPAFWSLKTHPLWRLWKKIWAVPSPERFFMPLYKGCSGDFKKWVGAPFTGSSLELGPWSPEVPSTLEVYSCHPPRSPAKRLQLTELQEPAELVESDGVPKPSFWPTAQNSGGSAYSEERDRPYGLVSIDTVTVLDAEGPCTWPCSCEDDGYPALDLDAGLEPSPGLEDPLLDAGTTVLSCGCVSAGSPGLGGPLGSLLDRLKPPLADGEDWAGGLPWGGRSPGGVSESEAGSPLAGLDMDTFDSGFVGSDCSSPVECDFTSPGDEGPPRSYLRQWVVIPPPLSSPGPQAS

| Binder | EC50 (read off the curve) |
| --- | --- |
| B1 | ~0.5 nM |
| B2 | ~0.5 nM |
| B3 | ~1 nM |
| B4 | ~0.7 nM |
| B5 | ~0.3 nM |

target: T4, rat IL-21R expressed on cells (rat); assay: cell-based ELISA on CHO cells transiently expressing rat IL-21R; HRP anti-human IgG, A450
T4 construct: whole, on cells
Procedure: as §1, §2

| Binder | EC50 (read off the curve) |
| --- | --- |
| B1 | ~0.9 nM |
| B2 | ~0.8 nM |
| B3 | ~2 nM |
| B4 | ~1 nM |
| B5 | ~0.4 nM |

target: murine IL-21 (murine, UniProt Q9ES17 18-146); assay: cell-based or functional assay

| Binder | Murine IL-21R-BaF3 Neutralization IC50 |
| --- | --- |
| B6 | 0.04 nM |

target: T5, human soluble IL-4R (human, UniProt P24394 26-232, limits assumed); assay: SPR, Ab captured
T5 construct: also called human sIL-4R
Procedure: (§3) The specificity of binding of a subset of transiently expressed anti-IL-21R binding proteins (here antibodies) was tested on a BIACORE™ 2000 surface plasmon resonance instrument. Anti-human-IgG, anti-murine immunoglobulin antibodies, and murine IL-21R-H/F were immobilized onto a research-grade carboxymethyl-dextran chip (CM5) using standard amine coupling. The sensor chip surface was activated with EDC/NHS for 7 min at a flow rate of 20 μl/min. The first flow cell was used as reference surface to correct for bulk refractive index, matrix effects, and nonspecific binding. […] Remaining activated groups were blocked with 1.0 M ethanolamine (pH 8.0). The molecular weights of the anti-human IgG and the anti-murine IgG were both 150 kD, and the molecular weight of the IL-21R monomer was 27 kD.
(§4) Conditioned media containing anti-IL-21R antibodies and antibody controls (murine anti-human IL-2Rβ and murine anti-human IL-4R(R&D Systems, Minneapolis, Minn.); human anti-human IL-13 (Wyeth, Cambridge, Mass.)) were diluted in HBS/EP buffer supplemented with 0.2% bovine serum and injected onto all four flow cells of the BIACORE™ chip, capturing 500-700 (RU) of antibody on the species-appropriate capture antibody. Following a 5 sec washing period, 50 nM solutions of a positive control protein (murine IL-21R-H/F), two human proteins related to IL-21R (human IL-2Rβ and human sIL-4R(R&D Systems)), or an unrelated His/FLAG-tagged protein (human IL-13-H/F) were injected over the captured antibodies on the chip. The association and dissociation phases were monitored for 120 and 180 sec, respectively, followed by two 5 μl injections of glycine (pH 1.5) to regenerate a fully active capturing surface. All binding experiments were done at 25° C. in HBS/EP buffer. Blank and buffer effects were subtracted for each sensorgram using double referencing.

| Binder | binding result |
| --- | --- |
| B1 | no binding (tested: 50 nM) |
| B2 | no binding (tested: 50 nM) |
| B3 | no binding (tested: 50 nM) |
| B4 | no binding (tested: 50 nM) |
| B5 | no binding (tested: 50 nM) |

target: T6, human IL-13-His/FLAG (human, UniProt P35225 35-146, limits assumed); assay: SPR, Ab captured
T6 construct: Unrelated His/FLAG-tagged control; also called human IL-13-H/F
Procedure: as §3, §4

T6 sequence (P35225 35-146 limits assumed): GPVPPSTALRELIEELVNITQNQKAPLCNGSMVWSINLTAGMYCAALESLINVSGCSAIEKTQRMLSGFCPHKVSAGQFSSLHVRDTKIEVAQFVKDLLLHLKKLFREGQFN

| Binder | binding result |
| --- | --- |
| B1 | no binding (tested: 50 nM) |
| B2 | no binding (tested: 50 nM) |
| B3 | no binding (tested: 50 nM) |
| B4 | no binding (tested: 50 nM) |
| B5 | no binding (tested: 50 nM) |

target: T1, human IL-2Rβ; assay: SPR, Ab captured
Procedure: as §3, §4

| Binder | binding result |
| --- | --- |
| B1 | no binding (tested: 50 nM) |
| B2 | no binding (tested: 50 nM) |
| B3 | no binding (tested: 50 nM) |
| B4 | no binding (tested: 50 nM) |
| B5 | no binding (tested: 50 nM) |

target: T7, cynomolgus monkey IL-21R expressed on cells (cynomolgus monkey, UniProt G7Q0S8 41-559); assay: cell-based ELISA on CHO cells transiently expressing cynomolgus monkey IL-21R; HRP anti-human IgG, A450
T7 construct: whole, on cells
Procedure: as §1, §2

| Binder | EC50 (read off the curve) |
| --- | --- |
| B1 | ~0.5 nM |
| B2 | ~0.5 nM |
| B3 | ~0.6 nM |
| B4 | ~2 nM |
| B5 | ~0.3 nM |

target: T4, rat IL-21R expressed on cells; assay: cell-based or functional assay

| Binder | IC50, rat T cell proliferation, experiment 1 | IC50, rat T cell proliferation, experiment 2 |
| --- | --- | --- |
| B7 | 70.5 nM | 59.2 nM |
| B8 | 159 nM | 94.7 nM |

target: T2, human gamma (γ) common chain expressed …; assay: cell-based ELISA on CHO cells transiently expressing human gamma common chain; HRP anti-human IgG, A450
Procedure: as §1, §2

| Binder | binding result |
| --- | --- |
| B1 | no binding (tested: 40 nM) |
| B2 | no binding (tested: 40 nM) |
| B3 | no binding (tested: 40 nM) |
| B4 | no binding (tested: 40 nM) |
| B5 | no binding (tested: 13 nM) |

target: T2, human gamma (γ) common chain expressed …; assay: cell ELISA, CHO cells
Procedure: as §2

| Binder | A450 (13 nM Ab) |
| --- | --- |
| B1 | 0.108 A450 |
| B2 | 0.111 A450 |
| B3 | 0.107 A450 |
| B4 | 0.137 A450 |
| B5 | 0.126 A450 |

target: T4, rat IL-21R expressed on cells; assay: cell ELISA, CHO cells
Procedure: as §2

| Binder | A450 (13 nM Ab) |
| --- | --- |
| B1 | 1.11 A450 |
| B2 | 1.12 A450 |
| B3 | 1.09 A450 |
| B4 | 0.999 A450 |
| B5 | 1.26 A450 |

target: T7, cynomolgus monkey IL-21R expressed on …; assay: cell ELISA, CHO cells
Procedure: as §2

| Binder | A450 (13 nM Ab) |
| --- | --- |
| B1 | 1.3 A450 |
| B2 | 1.35 A450 |
| B3 | 1.33 A450 |
| B4 | 1.28 A450 |
| B5 | 1.27 A450 |

target: T3, human IL-21R expressed on cells; assay: cell ELISA, CHO cells
Procedure: as §2

| Binder | A450 (13 nM Ab) |
| --- | --- |
| B1 | 1.35 A450 |
| B2 | 1.2 A450 |
| B3 | 1.15 A450 |
| B4 | 1.22 A450 |
| B5 | 1.22 A450 |

target: T3, human IL-21R expressed on cells; assay: cell-based or functional assay

| Binder | Human IL-21R-BaF3 Proliferation IC50 | Human IL-21R-TF1 Proliferation IC50 |
| --- | --- | --- |
| B1 | 0.77 nM | 3.84 nM |
| B2 | 0.97 nM | 3.8 nM |
| B3 | 1.14 nM | 3.34 nM |
| B4 | 0.82 nM | 3.36 nM |
| B5 | 0.65 nM | 4.6 nM |

target: murine IL-21R expressed on cells (murine, UniProt Q9JHX3 20-529); assay: cell-based or functional assay
Sequence (Q9JHX3 20-529 limits assumed): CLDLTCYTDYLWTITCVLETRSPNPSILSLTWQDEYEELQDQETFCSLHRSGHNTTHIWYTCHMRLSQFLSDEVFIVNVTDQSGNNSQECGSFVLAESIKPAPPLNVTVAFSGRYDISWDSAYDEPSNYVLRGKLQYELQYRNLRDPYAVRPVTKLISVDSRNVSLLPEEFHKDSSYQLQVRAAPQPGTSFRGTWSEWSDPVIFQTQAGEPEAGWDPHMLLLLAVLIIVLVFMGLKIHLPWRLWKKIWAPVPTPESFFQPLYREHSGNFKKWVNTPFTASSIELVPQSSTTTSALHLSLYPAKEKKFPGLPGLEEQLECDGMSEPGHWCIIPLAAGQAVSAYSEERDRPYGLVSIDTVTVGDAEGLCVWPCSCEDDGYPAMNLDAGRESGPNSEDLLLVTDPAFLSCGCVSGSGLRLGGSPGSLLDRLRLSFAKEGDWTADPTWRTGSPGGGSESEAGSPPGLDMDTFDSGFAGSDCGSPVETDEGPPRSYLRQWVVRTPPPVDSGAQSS

| Binder | Murine IL-21R-BaF3 Proliferation IC50 |
| --- | --- |
| B1 | 0.07 nM |
| B2 | 0.08 nM |
| B3 | 0.421 nM |
| B4 | 0.03 nM |
| B5 | 0.4 nM |
